From PMC4117788, “Structural dynamics of the two-component response regulator RstA in recognition of promoter DNA element” (Nucleic Acids Research, 2014)

Key:
[1] = molecular target: Klebsiella pneumoniae RstA N-terminal receiver domain (Klebsiella pneumoniae) (UniProt A6T8N1); assay: NMR line-widths; inactive kpRstA RD (without BeF3-) at high concentrations; data not shown
kpRstA DBD [2] = molecular target: T1, kpRstA DBD (Klebsiella pneumoniae, UniProt A6T8N1 130-236); assay: ITC; sequential model, KD1 (first site); ITC 25 C: 20 mM Tris pH 7.5, 100 mM NaCl (DBD); plus 7 mM MgCl2 with or without 5.3 mM BeSO4 and 35 mM NaF (full-length). NMR of complex: 20 mM Na phosphate pH; conditions: protein: recombinant; tags: N-terminal M-6H-AMG; chain copies: 2
T1 sequence: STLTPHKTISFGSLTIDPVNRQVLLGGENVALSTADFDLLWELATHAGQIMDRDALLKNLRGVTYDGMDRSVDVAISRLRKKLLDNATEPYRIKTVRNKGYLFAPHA

kpRstA full-length = molecular target: T2, kpRstA full-length (Klebsiella pneumoniae, UniProt A6T8N1 1-239); assay: ITC; without BeF3-, 7 mM MgCl2; sequential model, KD1; ITC 25 C: 20 mM Tris pH 7.5, 100 mM NaCl (DBD); plus 7 mM MgCl2 with or without 5.3 mM BeSO4 and 35 mM NaF (full-length). NMR of complex: 20 mM Na phosphate pH; conditions: protein: recombinant; tags: His-tag removed by thrombin; N-terminal GSAMA remains; chain copies: 2
T2 sequence: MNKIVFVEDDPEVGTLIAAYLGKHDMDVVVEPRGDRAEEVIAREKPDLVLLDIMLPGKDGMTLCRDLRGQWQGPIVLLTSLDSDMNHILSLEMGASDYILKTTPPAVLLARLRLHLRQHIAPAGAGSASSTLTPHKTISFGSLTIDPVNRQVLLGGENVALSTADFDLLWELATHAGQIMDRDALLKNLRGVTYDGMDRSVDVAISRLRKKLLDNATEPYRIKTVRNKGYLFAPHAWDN

kpRstA DBD [3] = molecular target: T1, kpRstA DBD; assay: ITC; one-site model, N = 1.05 (text gives error 0.54); ITC 25 C: 20 mM Tris pH 7.5, 100 mM NaCl (DBD); plus 7 mM MgCl2 with or without 5.3 mM BeSO4 and 35 mM NaF (full-length). NMR of complex: 20 mM Na phosphate pH; conditions: protein: recombinant; tags: N-terminal M-6H-AMG; chain copies: 2
kpRstA DBD R207A = kpRstA DBD R207A (Klebsiella pneumoniae, UniProt A6T8N1 130-236, R207A); assay: ITC; binding completely abolished; DNA-16a per Figure 1E legend (Table 1 says DNA-22); ITC 25 C: 20 mM Tris pH 7.5, 100 mM NaCl (DBD); plus 7 mM MgCl2 with or without 5.3 mM BeSO4 and 35 mM NaF (full-length). NMR of complex: 20 mM Na phosphate pH; conditions: protein: recombinant; tags: N-terminal M-6H-AMG; chain copies: 2
[4] = molecular target: the molecule itself; assay: SEC; full-length kpRstA in the presence of BeF3-; data not shown

Klebsiella pneumoniae RstA N-terminal receiver domain (from UniProt A6T8N1 1-119) (domain or fragment)
stoichiometry N [1]: 2

B1: DNA-22 (dsDNA)
DNA 1: GTTGTACATTCCGTTACTCCCT
DNA 2: AGGGAGTAACGGAATGTACAAC
Kd (kpRstA DBD [2]): 10.3 ± 1.14 µM
Kd (kpRstA full-length): 45.5 ± 8.41 µM

B2: DNA-16a (dsDNA)
DNA 1: ACGTTGTACATTCCGT
DNA 2: ACGGAATGTACAACGT
Kd (kpRstA DBD [3]): 8.17 ± 0.53 µM
binding result (kpRstA DBD R207A): no binding

B3: full-length Klebsiella pneumoniae RstA (natural protein)
chain: GSAMAMNKIVFVEDDPEVGTLIAAYLGKHDMDVVVEPRGDRAEEVIAREKPDLVLLDIMLPGKDGMTLCRDLRGQWQGPIVLLTSLDSDMNHILSLEMGASDYILKTTPPAVLLARLRLHLRQHIAPAGAGSASSTLTPHKTISFGSLTIDPVNRQVLLGGENVALSTADFDLLWELATHAGQIMDRDALLKNLRGVTYDGMDRSVDVAISRLRKKLLDNATEPYRIKTVRNKGYLFAPHAWDN
notes: RstA response regulator of Klebsiella pneumoniae, full length (RD residues 1-119, DBD residues 131-236); Cloned in a modified pET32a(+) lacking the enterokinase site; also called kpRstA; full-length kpRstA; source: E. coli BL21(DE3), purified (Ni-NTA, Superdex-75 SEC, thrombin digestion); not shown: His-tag, N-terminal, cleaved
stoichiometry N [4]: 2
